From IntAct's records for PubMed 20427285

B1: Protein Z-dependent protease inhibitor (Homo sapiens), Q9UK55 (parent)
chain: MKVVPSLLLSVLLAQVWLVPGLAPSPQSPETPAPQNQTSRVVQAPKEEEEDEQEASEEKASEEEKAWLMASRQQLAKETSNFGFSLLRKISMRHDGNMVFSPFGMSLAMTGLMLGATGPTETQIKRGLHLQALKPTKPGLLPSLFKGLRETLSRNLELGLTQGSFAFIHKDFDVKETFFNLSKRYFDTECVPMNFRNASQAKRLMNHYINKETRGKIPKLFDEINPETKLILVDYILFKGKWLTPFDPVFTEVDTFHLDKYKTIKVPMMYGAGKFASTFDKNFRCHVLKLPYQGNATMLVVLMEKMGDHLALEDYLTTDLVETWLRNMKTRNMEVFFPKFKLDQKYEMHELLRQMGIRRIFSPFADLSELSATGRNLQVSRVLQRTVIEVDERGTEAVAGILSEITAYSMPPVIKVDRPFHFMIYEETSGMLLFLGRVVNPTLL

How the values were obtained:
proz_human PROZ, P22891 [1] = variants of: B1; conditions: with proz_human PROZ
fa10_human F10, P00742 = variants of: B1; conditions: with fa10_human F10, P00742
proz_human PROZ, P22891 [2] = variants of: B1; conditions: with proz_human PROZ; remark: listed apart in the source

proz_human PROZ, P22891, sequence (P22891 whole entry): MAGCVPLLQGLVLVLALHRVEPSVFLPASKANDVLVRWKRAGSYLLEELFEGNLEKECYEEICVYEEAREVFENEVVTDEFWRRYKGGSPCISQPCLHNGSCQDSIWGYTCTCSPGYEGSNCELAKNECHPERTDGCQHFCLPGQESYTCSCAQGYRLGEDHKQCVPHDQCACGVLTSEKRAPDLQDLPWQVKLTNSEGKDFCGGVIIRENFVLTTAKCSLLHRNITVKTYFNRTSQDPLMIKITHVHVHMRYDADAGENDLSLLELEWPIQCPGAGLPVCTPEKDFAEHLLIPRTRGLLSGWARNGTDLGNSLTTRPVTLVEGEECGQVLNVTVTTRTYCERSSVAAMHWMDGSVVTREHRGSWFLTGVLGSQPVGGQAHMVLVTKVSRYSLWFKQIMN

MKVVPSLLLSVLLAQVWLVPGLAPSPQSPETPAPQNQTSRVVQAPKEEEEDEQEASEEKASEEEKAWLMASRQQLAKETSNFGFSLLRKISMRHDGNMVFSPFGMSLAMTGLMLGATGPTETQIKRGLHLQALKPTKPGLLPSLFKGLRETLSRNLELGLTQGSFAFIHKDFDVKETFFNLSKRYFDTECVPMNFRNASQAKRLMNHYINKETRGKIPKLFDEINPETKLILVDYILFKGKWLTPFDPVFTEVDTFHLDKYKTIKVPMMYGAGKFASTFDKNFRCHVLKLPYQGNATMLVVLMEKMGDHLALEDYLTTDLVETWLRNMKTRNMEVFFPKFKLDQKYEMHELLRQMGIRRIFSPFADLSELSATGRNLQVSRVLQRTVIEVDERGTEAVAGILSAITAYSMPPVIKVDRPFHFMIYEETSGMLLFLGRVVNPTLL [E404A]
effect of a mutation on the interaction (proz_human PROZ, P22891 [1]): with no effect | effect of a mutation on the interaction (fa10_human F10, P00742): with no effect

MKVVPSLLLSVLLAQVWLVPGLAPSPQSPETPAPQNQTSRVVQAPKEEEEDEQEASEEKASEEEKAWLMASRQQLAKETSNFGFSLLRKISMRHDGNMVFSPFGMSLAMTGLMLGATGPTETQIKRGLHLQALKPTKPGLLPSLFKGLRETLSRNLELGLTQGSFAFIHKDFDVKETFFNLSKRYFDTECVPMNFRNASQAKRLMNHYINKETRGKIPKLFDEINPETKLILVDYILFKGKWLTPFDPVFTEVDTFHLDKYKTIKVPMMYGAGKFASTFDKNFRCHVLKLPYQGNATMLVVLMEKMGDHLALEDYLTTDLVETWLRNMKTRNMEVFFPKFKLDQKYEMHELLRQMGIRRIFSPFADLSELSATGRNLQVSRVLQRTVIEVDERGTEAVAGILSEITARSMPPVIKVDRPFHFMIYEETSGMLLFLGRVVNPTLL [Y408R]
effect of a mutation on the interaction (fa10_human F10, P00742): decreasing interaction strength

MKVVPSLLLSVLLAQVWLVPGLAPSPQSPETPAPQNQTSRVVQAPKEEEEDEQEASEEKASEEEKAWLMASRQQLAKETSNFGFSLLRKISMRHAGNMVFSPFGMSLAMTGLMLGATGPTETQIKRGLHLQALKPTKPGLLPSLFKGLRETLSRNLELGLTQGSFAFIHKDFDVKETFFNLSKRYFDTECVPMNFRNASQAKRLMNHYINKETRGKIPKLFDEINPETKLILVDYILFKGKWLTPFDPVFTEVDTFHLAAYKTIKVPMMYGAGKFASTFDKNFRCHVLKLPYQGNATMLVVLMEKMGDHLALEDYLTTDLVETWLRNMKTRNMEVFFPKFKLDQKYEMHELLRQMGIRRIFSPFADLSELSATGRNLQVSRVLQRTVIEVDERGTEAVAGILSAITAYSMPPVIKVDRPFHFMIYEETSGMLLFLGRVVNPTLL [D95A;D259A;K260A;E404A]
effect of a mutation on the interaction (proz_human PROZ, P22891 [1]): disrupting interaction strength | effect of a mutation on the interaction (proz_human PROZ, P22891 [2]): disrupting interaction strength

MKVVPSLLLSVLLAQVWLVPGLAPSPQSPETPAPQNQTSRVVQAPKEEEEDEQEASEEKASEEEKAWLMASRQQLAKETSNFGFSLLRKISMRHDGNMVFSPFGMSLAMTGLMLGATGPTETQIKRGLHLQALKPTKPGLLPSLFKGLRETLSRNLELGLTQGSFAFIHKDFDVKETFFNLSKRYFDTECVPMNFRNASQAKRLMNHYINKETRGKIPKLFDEINPETKLILVDYILFKGKWLTPFDPVFTEVDTFHLDKYKTIKVPMMYGAGKFASTFDKNFRCHVLKLPYQGNATMLVVLMEKMGDHLALEDYLTTDLVETWLRNMKTRNMAVFFPKFKLDQKYEMHELLRQMGIRRIFSPFADLSELSATGRNLQVSRVLQRTVIEVDERGTEAVAGILSAITAYSMPPVIKVDRPFHFMIYEETSGMLLFLGRVVNPTLL [E334A;E404A]
effect of a mutation on the interaction (proz_human PROZ, P22891 [1]): with no effect | effect of a mutation on the interaction (fa10_human F10, P00742): with no effect

MKVVPSLLLSVLLAQVWLVPGLAPSPQSPETPAPQNQTSRVVQAPKEEEEDEQEASEEKASEEEKAWLMASRQQLAKETSNFGFSLLRKISMRHAGNMVFSPFGMSLAMTGLMLGATGPTETQIKRGLHLQALKPTKPGLLPSLFKGLRETLSRNLELGLTQGSFAFIHKDFDVKETFFNLSKRYFDTECVPMNFRNASQAKRLMNHYINKETRGKIPKLFDEINPETKLILVDYILFKGKWLTPFDPVFTEVDTFHLAAYKTIKVPMMYGAGKFASTFDKNFRCHVLKLPYQGNATMLVVLMEKMGDHLALEAYLTTDLVETWLRNMKTRNMEVFFPKFKLDQKYEMHELLRQMGIRRIFSPFADLSELSATGRNLQVSRVLQRTVIEVDERGTEAVAGILSEITAYSMPPVIKVDRPFHFMIYEETSGMLLFLGRVVNPTLL [D95A;D259A;K260A;D314A]
effect of a mutation on the interaction (fa10_human F10, P00742): with no effect

MKVVPSLLLSVLLAQVWLVPGLAPSPQSPETPAPQNQTSRVVQAPKEEEEDEQEASEEKASEEEKAWLMASRQQLAKETSNFGFSLLRKISMRHDGNMVFSPFGMSLAMTGLMLGATGPTETQIKRGLHLQALKPTKPGLLPSLFKGLRETLSRNLELGLTQGSFAFIHKDFDVKETFFNLSKRYFDTECVPMNFRNASQAKRLMNHYINKETRGKIPKLFDEINPETKLILVDYILFKGKWLTPFDPVFTEVDTFHLDKYKTIKVPMMYGAGKFASTFDKNFRCHVLKLPYQGNATMLVVLMEKMGDHLALEDYLTTDLVETWLRNMKTRNMAVFFPKFKLDQKYEMHELLRQMGIRRIFSPFADLSELSATGRNLQVSRVLQRTVIEVDERGTEAVAGILSEITAYSMPPVIKVDRPFHFMIYEETSGMLLFLGRVVNPTLL [E334A]
effect of a mutation on the interaction (proz_human PROZ, P22891 [1]): with no effect | effect of a mutation on the interaction (fa10_human F10, P00742): with no effect
